± gives the uncertainty stated by the source.
B1: Zinc finger homeobox protein 4, residues 2183 to 2238; numbered along this chain, Q86UP3 (parent)
chain: SSRTRFTDYQLRVLQDFFDTNAYPKDDEIEQLSTVLNLPTRVIVVWFQNARQKARK
B2: SWI/SNF complex subunit SMARCC2, residues 599 to 641; numbered along this chain, Q8TAQ2 (parent)
chain: REWTEQETLLLLEALEMYKDDWNKVSEHVGSRTQDECILHFLR

Variants of: B1
Assay: abundance fitness (aPCA) (normalised: wild type 0, dead -1); higher = more abundant; growth selection in yeast, the domain comes from the species named
Details: Homo sapiens

Variant	abundance fitness
A54W	-0.211 ± 0.18
A54T	-0.1 ± 0.097
A54C	0.062 ± 0.17
A54K	-0.232 ± 0.23
A54H	-0.039 ± 0.094
A54D	-0.068 ± 0.12
A54M	-0.013 ± 0.2
A54F	-0.06 ± 0.12
A54Q	0.01 ± 0.17
A54L	-0.079 ± 0.093
A54G	-0.06 ± 0.12
A54P	-0.073 ± 0.088
A54N	0.081 ± 0.12
A54R	-0.179 ± 0.1
A54Y	-0.277 ± 0.15
A54E	-0.013 ± 0.23
A54V	-0.053 ± 0.1
A54I	-0.096 ± 0.13
K56R	-0.188 ± 0.14
K56M	-0.079 ± 0.24
K56S	-0.366 ± 0.15
K56E	-0.547 ± 0.29
K56C	-0.27 ± 0.27
K56D	-0.06 ± 0.23
K56H	-0.012 ± 0.23
K56L	-0.33 ± 0.37

Variant	abundance fitness
K56Y	0.061 ± 0.21
K56T	0.029 ± 0.24
K56P	0.04 ± 0.38
K56Q	-0.178 ± 0.27
K56N	-0.248 ± 0.18
K56I	-0.238 ± 0.38
K56G	-0.038 ± 0.19
R55F	-0.369 ± 0.27
R55G	-0.048 ± 0.092
R55C	-0.104 ± 0.22
R55I	0.307 ± 0.23
R55V	-0.161 ± 0.12
R55W	-0.286 ± 0.14
R55H	0.187 ± 0.18
R55L	0.223 ± 0.13
R55A	-0.111 ± 0.13
R55Q	-0.1 ± 0.34
R55M	0.154 ± 0.3
R55P	-0.113 ± 0.15
R55D	-0.041 ± 0.21
R55Y	0.176 ± 0.39
R55T	0.004 ± 0.19
R55E	-0.129 ± 0.19
R55S	-0.069 ± 0.14
Q48L	-0.441 ± 0.2
Q48K	-0.434 ± 0.23

Variant	abundance fitness
Q48E	-0.134 ± 0.19
Q48G	-0.177 ± 0.1
Q48V	-0.061 ± 0.17
Q48H	-0.418 ± 0.26
Q48W	-0.262 ± 0.18
Q48A	0.017 ± 0.19
Q48M	-0.278 ± 0.19
Q48C	-0.051 ± 0.23
Q48T	-0.082 ± 0.23
Q48S	-0.161 ± 0.12
Q48N	-0.132 ± 0.18
Q48P	-1.11 ± 0.3
Q48I	-0.281 ± 0.29
Q48R	-0.106 ± 0.1
Q48D	-0.021 ± 0.15
F47Q	-0.829 ± 0.22
F47Y	-0.207 ± 0.28
F47S	-0.507 ± 0.12
F47R	-0.801 ± 0.12
F47V	-0.264 ± 0.11
F47T	-0.893 ± 0.29
F47W	-0.452 ± 0.14
K53G	0.023 ± 0.073
K53C	0.11 ± 0.13
K53F	0.036 ± 0.15
K53P	-0.054 ± 0.12

Variant	abundance fitness
K53L	0.144 ± 0.085
K53I	-0.124 ± 0.16
K53H	0.126 ± 0.17
K53R	-0.137 ± 0.079
K53Q	-0.155 ± 0.11
K53M	0.119 ± 0.15
K53W	-0.178 ± 0.1
K53A	0.145 ± 0.099
K53D	0.109 ± 0.16
K53Y	-0.223 ± 0.19
K53S	-0.06 ± 0.095
K53T	0.028 ± 0.12
K53E	0.262 ± 0.11
Q52N	-0.166 ± 0.2
Q52E	0.068 ± 0.32
Q52S	-0.275 ± 0.16
Q52T	0.011 ± 0.14
Q52L	-0.121 ± 0.11
Q52R	-0.401 ± 0.19
Q52V	0.026 ± 0.19
Q52A	-0.418 ± 0.24
Q52P	-0.049 ± 0.15
Q52M	-0.308 ± 0.39
Q52Y	-0.256 ± 0.28
Q52H	-0.015 ± 0.23
N49M	-0.168 ± 0.14

Variant	abundance fitness
N49A	-0.418 ± 0.12
N49G	-0.011 ± 0.084
N49L	-0.17 ± 0.1
N49H	-0.077 ± 0.14
N49Y	-0.246 ± 0.19
N49P	-0.862 ± 0.22
N49Q	-0.355 ± 0.19
N49C	-0.252 ± 0.14
N49T	0.073 ± 0.14
N49K	-0.153 ± 0.18
N49W	-0.352 ± 0.12
N49D	0.108 ± 0.17
N49F	0.005 ± 0.27
N49E	0.032 ± 0.15
N49I	-0.127 ± 0.16
N49V	-0.261 ± 0.11
A50C	0.045 ± 0.14
A50F	-0.054 ± 0.28
A50Q	-0.113 ± 0.18
A50E	-0.116 ± 0.15
A50H	-0.394 ± 0.34
A50R	-0.155 ± 0.086
A50T	-0.087 ± 0.19
A50K	-0.347 ± 0.2
A50D	-0.57 ± 0.41
A50I	-0.396 ± 0.41

Variant	abundance fitness
A50N	-0.033 ± 0.22
A50L	-0.256 ± 0.12
A50P	-0.87 ± 0.29
A50V	-0.044 ± 0.12
R51E	-0.144 ± 0.27
R51F	-0.221 ± 0.23
R51Q	-0.251 ± 0.24
R51I	-0.235 ± 0.2
R51M	-0.219 ± 0.23
R51P	-0.898 ± 0.24
R51A	-0.24 ± 0.13
R51G	-0.317 ± 0.1
R51T	-0.608 ± 0.24
R51K	0.035 ± 0.26
R51C	-0.128 ± 0.24
R51V	-0.043 ± 0.13
R51Y	-0.175 ± 0.31
R51W	-0.194 ± 0.13
R51D	-0.304 ± 0.26
R51H	-0.462 ± 0.25
R51N	-0.488 ± 0.34

Variants of: B2
Assay: as above
Details: Homo sapiens

Variant	abundance fitness
R1Q	0.526 ± 0.23
R1C	0.225 ± 0.075
R1P	-0.025 ± 0.18
R1D	0.232 ± 0.092
R1L	0.094 ± 0.083
R1G	0.142 ± 0.057
R1Y	0.033 ± 0.095
R1H	-0.26 ± 0.23
R1K	0.35 ± 0.12
R1V	0.316 ± 0.067
R1F	0.36 ± 0.11
R1I	0.382 ± 0.083
R1M	0.298 ± 0.12
R1T	0.287 ± 0.081
R1E	0.251 ± 0.11
R1A	0.244 ± 0.084

From the Human Domainome abundance scans (Beltran et al. 2025)
